Experimental data reported in KR20190140944A.

Tests used:
[1] = molecular target: HER2 및 HER3 (ErbB-2 및 ErbB-3 양성 세포 상에 함께 발현) (human) (UniProt P04626); assay: steady-state cell affinity, 125I-labelled IgG on SK-BR-3 cells at 4 C; mean of 3 assays
[2] = molecular target: HER2 및 HER3 (ErbB-2 및 ErbB-3 양성 세포 상에 함께 발현) (human) (UniProt P04626); assay: steady-state cell affinity, 125I-labelled IgG on BT-474 cells at 4 C; mean of 3 assays

Kd [1]: 2 nM
Kd [2]: 3.2 nM
Substance: PB4188 (bispecific antibody)
